Biological target: αL-YFP/β2 (LFA-1 with dimerizing YFP on αL) on K562 cells (UniProt P20701)
Test: FRET or BRET

UniProt P20701, sequence (P20701 whole entry, looked up): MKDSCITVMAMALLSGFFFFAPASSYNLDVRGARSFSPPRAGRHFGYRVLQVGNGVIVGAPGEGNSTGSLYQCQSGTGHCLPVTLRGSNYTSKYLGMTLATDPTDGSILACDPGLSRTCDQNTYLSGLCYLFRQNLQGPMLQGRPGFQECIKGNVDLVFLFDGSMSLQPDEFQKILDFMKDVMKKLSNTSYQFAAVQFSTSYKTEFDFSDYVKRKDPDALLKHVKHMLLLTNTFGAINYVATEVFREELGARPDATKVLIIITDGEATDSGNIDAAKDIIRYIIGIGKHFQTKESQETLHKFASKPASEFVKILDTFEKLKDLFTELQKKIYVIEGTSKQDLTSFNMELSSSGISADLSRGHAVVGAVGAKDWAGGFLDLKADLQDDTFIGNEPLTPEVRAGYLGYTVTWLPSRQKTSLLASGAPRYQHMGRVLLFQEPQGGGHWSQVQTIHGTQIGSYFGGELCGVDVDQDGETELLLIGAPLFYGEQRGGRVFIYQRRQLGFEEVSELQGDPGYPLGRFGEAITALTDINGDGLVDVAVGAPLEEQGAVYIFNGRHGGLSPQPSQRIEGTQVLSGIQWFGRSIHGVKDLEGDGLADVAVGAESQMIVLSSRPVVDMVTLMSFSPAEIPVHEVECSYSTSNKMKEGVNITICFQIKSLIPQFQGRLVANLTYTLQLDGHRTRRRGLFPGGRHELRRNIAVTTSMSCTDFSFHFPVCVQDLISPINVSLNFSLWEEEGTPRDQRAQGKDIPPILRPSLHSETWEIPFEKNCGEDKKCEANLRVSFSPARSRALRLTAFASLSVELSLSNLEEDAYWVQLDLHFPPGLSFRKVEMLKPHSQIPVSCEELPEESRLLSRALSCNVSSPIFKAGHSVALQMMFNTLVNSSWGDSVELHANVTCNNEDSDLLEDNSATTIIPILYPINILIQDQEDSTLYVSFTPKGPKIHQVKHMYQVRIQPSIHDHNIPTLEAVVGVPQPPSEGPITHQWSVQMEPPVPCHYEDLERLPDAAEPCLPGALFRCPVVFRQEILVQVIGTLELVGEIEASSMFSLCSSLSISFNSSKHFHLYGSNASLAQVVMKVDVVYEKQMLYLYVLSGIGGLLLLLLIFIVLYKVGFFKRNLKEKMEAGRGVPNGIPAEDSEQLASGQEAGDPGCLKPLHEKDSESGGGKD

With “αL-CFP/β2 (LFA-1 with dimerizing CFP on αL) on K562 cells (from UniProt P20701 26-1170; P05107 23-769) (receptor)” as the substance, how does the K (analogous to the dissociation constant of microclusters) read?
Its K (analogous to the dissociation constant of microclusters) is 532.
